Laboratory results: US20110311550A1
Like-named read-outs stand apart in the source and are kept apart here.

Legend:
[1] = molecular target: E1E2 complex of HCV isolate H77 (genotype 1a), wild type (HCV isolate H77) (UniProt P27958); test: competition ELISA on H77 E1E2; competitor m45 (Fab P3)
[2] = molecular target: HCV E1E2 complex, isolate H77 (genotype 1a) (hepatitis C virus genotype 1a, isolate H77) (UniProt P27958); test: competition ELISA on lectin-captured H77 E1E2; competitor: AR1B (in the Blocking Fab columns)
[3] = molecular target: E1E2 complex of HCV isolate H77 (genotype 1a), wild type (HCV isolate H77) (UniProt P27958); test: competition ELISA on H77 E1E2; competitor m38 (Fab N2)
[4] = molecular target: HCV E1E2 complex, isolate H77 (genotype 1a) (hepatitis C virus genotype 1a, isolate H77) (UniProt P27958); test: competition ELISA on lectin-captured H77 E1E2; competitor: Fab U1
[5] = molecular target: HCV E1E2 complex, isolate H77 (genotype 1a) (hepatitis C virus genotype 1a, isolate H77) (UniProt P27958); test: competition ELISA on lectin-captured H77 E1E2; competitor: Fab Q1
[6] = molecular target: HCV E1E2 complex, isolate H77 (genotype 1a) (hepatitis C virus genotype 1a, isolate H77) (UniProt P27958); test: competition ELISA on lectin-captured H77 E1E2; competitor: Fab T1
[7] = molecular target: HCV E1E2 complex, isolate H77 (genotype 1a) (hepatitis C virus genotype 1a, isolate H77) (UniProt P27958); test: competition ELISA on lectin-captured H77 E1E2; competitor: Fab P5
[8] = molecular target: E1E2 complex of HCV isolate H77 (genotype 1a), wild type (HCV isolate H77) (UniProt P27958); test: competition ELISA on H77 E1E2; competitor m41 (Fab O1)
[9] = molecular target: HCV E1E2 complex, isolate H77 (genotype 1a) (hepatitis C virus genotype 1a, isolate H77) (UniProt P27958); test: competition ELISA on lectin-captured H77 E1E2; competitor: AR2A (in the Blocking Fab columns)
[10] = molecular target: HCV E1E2 complex, isolate H77 (genotype 1a) (hepatitis C virus genotype 1a, isolate H77) (UniProt P27958); test: competition ELISA on lectin-captured H77 E1E2; competitor: Fab Q2
[11] = molecular target: E1E2 complex of HCV isolate H77 (genotype 1a), wild type (HCV isolate H77) (UniProt P27958); test: competition ELISA on H77 E1E2; competitor m39 (Fab N3)
[12] = molecular target: HCV E1E2 complex, isolate H77 (genotype 1a) (hepatitis C virus genotype 1a, isolate H77) (UniProt P27958); test: competition ELISA on lectin-captured H77 E1E2; competitor: Fab R1
[13] = molecular target: E1E2 complex of HCV isolate H77 (genotype 1a), wild type (HCV isolate H77) (UniProt P27958); test: competition ELISA on H77 E1E2; competitor m44 (Fab P2)
[14] = molecular target: E1E2 complex of HCV isolate H77 (genotype 1a), wild type (HCV isolate H77) (UniProt P27958); test: competition ELISA on H77 E1E2; competitor m40 (Fab N4)
[15] = molecular target: HCV E1E2 complex, isolate H77 (genotype 1a) (hepatitis C virus genotype 1a, isolate H77) (UniProt P27958); test: competition ELISA on lectin-captured H77 E1E2; competitor: Fab S1
[16] = molecular target: E1E2 complex of HCV isolate H77 (genotype 1a), wild type (HCV isolate H77) (UniProt P27958); test: competition ELISA on H77 E1E2; competitor m42 (Fab P1)
[17] = molecular target: HCV E1E2 complex, isolate H77 (genotype 1a) (hepatitis C virus genotype 1a, isolate H77) (UniProt P27958); test: competition ELISA on lectin-captured H77 E1E2; competitor: Fab V1
[18] = molecular target: HCV E1E2 complex, isolate H77 (genotype 1a) (hepatitis C virus genotype 1a, isolate H77) (UniProt P27958); test: competition ELISA on lectin-captured H77 E1E2; competitor: Fab P6
[19] = molecular target: E1E2 complex of HCV isolate H77 (genotype 1a), wild type (HCV isolate H77) (UniProt P27958); test: competition ELISA on H77 E1E2; competitor m43 (Fab P1a)
[20] = molecular target: E1E2 complex of HCV isolate H77 (genotype 1a), wild type (HCV isolate H77) (UniProt P27958); test: competition ELISA on H77 E1E2; competitor m37 (Fab N1)
[21] = molecular target: E1E2 complex of HCV isolate H77 (genotype 1a), wild type (HCV isolate H77) (UniProt P27958); test: competition ELISA on H77 E1E2; competitor m46 (Fab P4)
[22] = molecular target: HCV E1E2 complex, isolate H77 (genotype 1a) (hepatitis C virus genotype 1a, isolate H77) (UniProt P27958)
[23] = molecular target: HCV E1E2 complex, isolate H77 (genotype 1a) (hepatitis C virus genotype 1a, isolate H77) (UniProt P27958); test: apparent affinity: half-maximal binding, ELISA on lectin-captured E1E2
[24] = molecular target: HCV E1E2 complex, isolate HCV-1 (genotype 1a), vaccinia-expressed (hepatitis C virus genotype 1a, isolate HCV-1) (UniProt P26664); test: as above
[25] = molecular target: HCV E1E2 complex, isolate H77 (genotype 1a) (hepatitis C virus genotype 1a, isolate H77) (UniProt P27958); test: ELISA, mAb with E1E2 (H77), then CD81-LEL plate

Substance: mouse MAb A4 (antibody)
- % residual binding [1]: 100%
- residual binding [2]: 85%
- % residual binding [3]: 101%
- residual binding [4]: 101%
- residual binding [5]: 95%
- residual binding [6]: 99%
- residual binding [7]: 100%
- % residual binding [8]: 96%
- residual binding [9]: 87%
- residual binding [10]: 98%
- % residual binding [11]: 96%
- residual binding [12]: 99%
- % residual binding [13]: 102%
- % residual binding [14]: 100%
- residual binding [15]: 100%
- % residual binding [16]: 101%
- residual binding [17]: 99%
- residual binding [18]: 99%
- % residual binding [19]: 100%
- % residual binding [20]: 100%
- % residual binding [21]: 98%

Substance: MAb AR3D (antibody)
- residual binding [22]: 58%

Substance: MAb AR3D (IgG1 from Fab L4) (antibody)
- EC50 [23]: 4 nM
- EC50 [24]: 2.4 nM
- IC50 [25]: 1 nM
